Experimental data: patent US20130189259A1 (INSERM INSTITUT NATIONAL DE LA SANTE ET DE LA RECHERCHE …, published 2013)
“And” between values parts separate entries of the source, which are not always exact repeats. Equal entries are not always repeated.

T1: recombinant soluble human GPVI (GPVI-Fc) (human, UniProt Q9HCN6 21-267)
T1 construct: extracellular domain; also called soluble recombinant GPVI; purified GPVI; not shown: human Ig Fc domain
T1 sequence (looked up): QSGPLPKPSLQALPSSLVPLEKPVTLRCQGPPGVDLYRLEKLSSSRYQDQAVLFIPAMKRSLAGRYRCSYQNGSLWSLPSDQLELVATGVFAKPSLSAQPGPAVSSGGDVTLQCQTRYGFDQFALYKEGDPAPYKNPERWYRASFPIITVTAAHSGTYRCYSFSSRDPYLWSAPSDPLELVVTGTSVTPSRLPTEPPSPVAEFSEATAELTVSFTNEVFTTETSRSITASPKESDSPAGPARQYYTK


Legend:
[1] = molecular target: human glycoprotein VI on human platelets (human) (UniProt Q9HCN6); experiment: flow cytometry, periplasmic extract on human platelets, FITC anti-c-myc
[2] = molecular target: human glycoprotein VI on human platelets (human) (UniProt Q9HCN6); experiment: flow cytometry of washed human platelets with an irrelevant scFv, FITC-coupled anti-c-myc IgG [top panel]
[3] = molecular target: human glycoprotein VI on human platelets (human) (UniProt Q9HCN6); experiment: flow cytometry of human platelets with bacterial periplasmic extract, FITC-coupled anti-c-myc antibody [upper panel]
[4] = molecular target: T1, recombinant soluble human GPVI (GPVI-Fc); experiment: blocking ELISA: 4 µg GPVI-Fc on immobilized collagen with increasing antibody fragment; blocked ligand: fibrillar type I collagen; bound GPVI-Fc detected with HRP-coupled anti-Fc
Method: (§1) FIG. 9. Inhibition of GPVI binding to immobilized collagen. GPVI-Fc was incubated on immobilized collagen in the presence of increasing amounts of antibodies: scFv 9O12.2 (triangle), or pFab (square) (A): 2 μg of GP VI-Fc; (B): 4 μg of GPVI-Fc Bound GPVI-Fc was detected using an HRP coupled anti-Fc IgG.

[5] = molecular target: T1, recombinant soluble human GPVI (GPVI-Fc); experiment: SPR (BIAcore 2000), GPVI-Fc immobilized on CM5, first series
Method: (§2) Binding of the anti-GPVI scFv to recombinant GPVI-Fc is analyzed with surface plasmon resonance using a BIAcore 2000 system (Uppsala, Sweden). Binding studies is performed with scFv 9O12, Proteolytic Fab and parental IgG.
(§3) Recombinant GPVI-Fc is immobilized (˜600 RU) onto a Carboxy-Methyl Dextran CM5 sensor chip using the amine coupling method (Wizard procedure). Antibody is then passed over the immobilized recombinant GPVI-Fc in HBS-EP buffer (0.01 M HEPES pH 7.4, 0.15 M NaCl, 0.005% polysorbate 20 (v/v)) at a flow rate of 20 μl/min at 25° C. Kinetic constants (kₐ, kd) and affinity are determined using BIAevaluation version 3.1 software, by fitting data to binding model. HBS-EP is the running buffer. 10 mM glycine-HCl pH 2.5 injected for 30 s at 20 μl/min is the regeneration buffer. All reagents and buffers used are from Biacore.

[6] = molecular target: T1, recombinant soluble human GPVI (GPVI-Fc); experiment: inhibition of GPVI-Fc binding to immobilized collagen, ELISA
Method: as §1

[7] = molecular target: T1, recombinant soluble human GPVI (GPVI-Fc); experiment: SPR (BIAcore 2000), GPVI-Fc immobilized on CM5, second series
Method: as §2, §3

[8] = molecular target: T1, recombinant soluble human GPVI (GPVI-Fc); experiment: competition ELISA on GPVI-Fc coated plates; competitor: scFv 9O12.2 at a fixed concentration (60 µg/mL in the legend, 100 µg/ml in the methods), bound scFv detected with HRP-coupled anti-c-myc
[9] = molecular target: T1, recombinant soluble human GPVI (GPVI-Fc); experiment: SPR against immobilized GPVI (procedure as in Example 1)

| IC50 (read off the curve) [4] | Kd [5] | IC50 [6] | Kd [7] | Molecule | further results |
| --- | --- | --- | --- | --- | --- |
| – | – | – | – | irrelevant scFv (c-myc tagged negative control) | % positive platelets [1]: 0.17%; % positive platelets (FITC count) [2]: 0.17%; % positive platelets (FITC count) [3]: 0.03% |
| ~7 µg/mL | 4.5 nM | 2.1 µg/mL and 15 nM | 2.3 nM | 9O12.2 Fab fragment prepared by papain digestion of the parental IgG (Fab, V domains shown, Papain Fab of the murine IgG1 kappa antibody; also called Fab 9O12.2; Fab 9O12) VH: QVQLQESGAELVKPGASVKMSCKASGYTFTSYNMHWVKQTPGQGLEWIGGIYPGNGDTSFNQKFKGKATLTADKSSRTAYMQLSSLTSEDSAVYYCARGTVVGDWYFDVWGAGTTLTVSS VL: DVLMTQTPLSLPVSLGDQASISCRSSQSLENSNGNTYLNWYLQKPGQSPQLLIYRVSNRFSGVLDRFSGSGSGTDFTLKISRVEAEDLGVYFCLQLTHVPWTFGGGTKLEIK | – |
| – | 6.5 nM | – | 4 nM | 9O12.2 monoclonal anti-human GPVI antibody (murine IgG1, kappa) (antibody, V domains shown, The VL is therefore written as 136-247; also called 9O12.2 IgG; IgG 9O12.2) VH: QVQLQESGAELVKPGASVKMSCKASGYTFTSYNMHWVKQTPGQGLEWIGGIYPGNGDTSFNQKFKGKATLTADKSSRTAYMQLSSLTSEDSAVYYCARGTVVGDWYFDVWGAGTTLTVSS VL: DVLMTQTPLSLPVSLGDQASISCRSSQSLENSNGNTYLNWYLQKPGQSPQLLIYRVSNRFSGVLDRFSGSGSGTDFTLKISRVEAEDLGVYFCLQLTHVPWTFGGGTKLEIK | IC50 (read off the curve) [8]: ~20 µg/mL |
| – | – | – | – | second optimized humanized scFv 9O12.2 fragment, hscFv 9O12.2(2) (scFv, Murine VL FR1 and FR2 are kept; Detected through its c-myc flag) scFv: QVQLQESGAEVKKPGASVKVSCKASGYSFTSYNMHWVRQAPGQRLEWMGGIYPGNGDTSFNQKFKGKATLTADKSSRTAYMGLSSLRPEDTAVYYCARGTVVGDWYFDVWGQGTLVTVSSGGGGSGGGGSGGGGSDVLMTQTPLSLPVSLGDQASISCRSSQSLENSNGNTYLNWYLQKPGQSPQLLIYRVSNRFSGVLDRFSGSGSGTDFTLTISSLQPEDFAIYYCLQLTHVPWTFGGGTKVEIKRSRVTVSSDQKLISEEDLN | Kd [9]: 3.2 nM; koff [9]: 0.000186 s⁻¹; kon [9]: 58000 M⁻¹ s⁻¹ |
| ~4 µg/mL | 2.5 nM | ~1.17 µg/mL and ~42 µM | 2.6 nM | murine single chain variable fragment scFv 9O12.2 (VH-(Gly4Ser)3-VL, spacer, c-myc flag) (scFv, Made in the E. coli periplasm through a pelB leader; Tested as periplasmic extract or after purification on GPVI-sepharose; The monomer was isolated by size exclusion for the aggregation assay; also called mscFv 9O12.2; mscFv 9O12) scFv: QVQLQESGAELVKPGASVKMSCKASGYTFTSYNMHWVKQTPGQGLEWIGGIYPGNGDTSFNQKFKGKATLTADKSSRTAYMQLSSLTSEDSAVYYCARGTVVGDWYFDVWGAGTTLTVSSGGGGSGGGGSGGGGSDVLMTQTPLSLPVSLGDQASISCRSSQSLENSNGNTYLNWYLQKPGQSPQLLIYRVSNRFSGVLDRFSGSGSGTDFTLKISRVEAEDLGVYFCLQLTHVPWTFGGGTKLEIKRSRVTVSSEQKLISEEDLN | koff [7]: 0.00017 s⁻¹; kon [7]: 65000 M⁻¹ s⁻¹ |
